Test results reported in publication PMC12748766, “Structural basis for human chondroitin sulfate chain polymerization” (Nature Communications, 2025).
Changes are numbered by the printed parent chain.

Experiments:
Assay in all cases: mass photometry; Refeyn OneMP; purified complexes diluted in 20 mM MES pH 6.5, 150 mM NaCl to around 25 nM
Conditions in all cases: both partners purified
[1] = target: T1, Chondroitin Sulfate Synthase-1 (CHSY1), secreted N-terminally truncated construct aa68-aa802 (human, UniProt Q86X52 68-802)
T1 construct: CHSY1, human, UniProt Q86X52, residues 68-802 (membrane-spanning helix removed); Construct in pHR-CMV-TetO2 with an N-terminal chicken RPTP sigma signal peptide, SUMO, 6x His and a 3C site; no cleavage site before the C-terminal Avi tag; source: Freestyle 293-F cells, co-transfected, secreted; purified from the supernatant (HisTrap, 3C protease, second HisTrap); not shown: SUMO, N-terminal, …
T1 sequence (looked up): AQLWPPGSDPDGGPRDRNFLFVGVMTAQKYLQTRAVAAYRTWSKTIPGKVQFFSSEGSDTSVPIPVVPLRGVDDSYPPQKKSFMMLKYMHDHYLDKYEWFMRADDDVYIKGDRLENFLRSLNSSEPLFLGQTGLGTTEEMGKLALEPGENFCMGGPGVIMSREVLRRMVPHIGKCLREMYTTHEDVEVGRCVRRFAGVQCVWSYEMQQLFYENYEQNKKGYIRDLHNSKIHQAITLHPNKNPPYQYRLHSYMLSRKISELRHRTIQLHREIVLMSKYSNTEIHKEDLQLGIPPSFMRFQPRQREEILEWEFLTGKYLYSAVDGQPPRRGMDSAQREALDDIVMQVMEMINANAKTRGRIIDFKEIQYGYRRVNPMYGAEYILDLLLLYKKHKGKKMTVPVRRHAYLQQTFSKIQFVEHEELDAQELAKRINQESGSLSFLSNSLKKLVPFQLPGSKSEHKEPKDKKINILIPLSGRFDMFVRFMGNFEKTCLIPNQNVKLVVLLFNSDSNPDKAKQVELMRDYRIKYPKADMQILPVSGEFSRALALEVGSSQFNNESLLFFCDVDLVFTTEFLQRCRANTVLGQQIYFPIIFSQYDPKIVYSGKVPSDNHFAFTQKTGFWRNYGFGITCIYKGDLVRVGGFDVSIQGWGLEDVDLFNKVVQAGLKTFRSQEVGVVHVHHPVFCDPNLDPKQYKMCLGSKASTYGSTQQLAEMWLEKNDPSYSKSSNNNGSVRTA

[2] = target: T2, CHSY3^D261N/D263N, secreted construct aa157-aa882 (human, UniProt Q70JA7 157-882, D261N | D263N)
T2 construct: CHSY3, human, UniProt Q70JA7, residues 157-882, mutations in the DxD motif of the N-terminal GT domain; source: Freestyle 293-F cells, co-transfected with CHPF, secreted; purified by the same protocol as the wild-type complexes; not shown: SUMO, N-terminal, cleaved; His6, N-terminal, cleaved
T2 sequence (looked up): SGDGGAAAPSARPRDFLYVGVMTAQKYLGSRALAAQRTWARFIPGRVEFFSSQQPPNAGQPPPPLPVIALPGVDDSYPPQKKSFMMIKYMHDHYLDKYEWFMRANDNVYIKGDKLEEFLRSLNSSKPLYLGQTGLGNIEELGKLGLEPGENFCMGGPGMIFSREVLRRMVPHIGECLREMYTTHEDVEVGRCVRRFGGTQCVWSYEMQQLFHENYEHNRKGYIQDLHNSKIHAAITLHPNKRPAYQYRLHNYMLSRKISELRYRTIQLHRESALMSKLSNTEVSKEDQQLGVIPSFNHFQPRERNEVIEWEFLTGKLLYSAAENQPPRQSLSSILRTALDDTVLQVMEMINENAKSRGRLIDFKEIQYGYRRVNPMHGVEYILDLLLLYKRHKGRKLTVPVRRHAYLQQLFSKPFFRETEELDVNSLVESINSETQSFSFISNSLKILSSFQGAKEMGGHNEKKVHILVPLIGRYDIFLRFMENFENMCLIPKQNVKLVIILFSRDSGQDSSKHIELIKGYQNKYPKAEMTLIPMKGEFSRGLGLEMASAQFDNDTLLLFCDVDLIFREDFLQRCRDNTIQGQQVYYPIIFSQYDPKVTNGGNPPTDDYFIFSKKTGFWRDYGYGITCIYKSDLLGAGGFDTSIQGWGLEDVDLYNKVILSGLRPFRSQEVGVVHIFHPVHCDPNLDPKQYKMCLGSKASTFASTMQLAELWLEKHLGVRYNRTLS

[3] = target: T3, CHSY3^D718N/D720N, secreted construct aa157-aa882 (human, UniProt Q70JA7 157-882, D718N | D720N)
T3 construct: CHSY3, human, UniProt Q70JA7, residues 157-882, mutations in the DxD motif of the C-terminal GT domain; source: Freestyle 293-F cells, co-transfected with CHPF, secreted; purified by the same protocol as the wild-type complexes; not shown: SUMO, N-terminal, cleaved; His6, N-terminal, cleaved
T3 sequence (looked up): T2 sequence (looked up) with N105D, N107D, D562N, D564N

Measured: binding result

B1: Chondroitin Polymerizing Factor (CHPF), secreted N-terminally truncated construct aa81-aa775 (domain or fragment, human, UniProt Q8IZ52 81-775, looked up)
chain: GENWEPRVLPYHPAQPGQAAKKAVRTRYISTELGIRQRLLVAVLTSQTTLPTLGVAVNRTLGHRLERVVFLTGARGRRAPPGMAVVTLGEERPIGHLHLALRHLLEQHGDDFDWFFLVPDTTYTEAHGLARLTGHLSLASAAHLYLGRPQDFIGGEPTPGRYCHGGFGVLLSRMLLQQLRPHLEGCRNDIVSARPDEWLGRCILDATGVGCTGDHEGVHYSHLELSPGEPVQEGDPHFRSALTAHPVRDPVHMYQLHKAFARAELERTYQEIQELQWEIQNTSHLAVDGDQAAAWPVGIPAPSRPASRFEVLRWDYFTEQHAFSCADGSPRCPLRGADRADVADVLGTALEELNRRYHPALRLQKQQLVNGYRRFDPARGMEYTLDLQLEALTPQGGRRPLTRRVQLLRPLSRVEILPVPYVTEASRLTVLLPLAAAERDLAPGFLEAFATAALEPGDAAAALTLLLLYEPRQAQRVAHADVFAPVKAHVAELERRFPGARVPWLSVQTAAPSPLRLMDLLSKKHPLDTLFLLAGPDTVLTPDFLNRCRMHAISGWQAFFPMHFQAFHPAVAPPQGPGPPELGRDTGRFDRQAASEACFYNSDYVAARGRLAAASEQEEELLESLDVYELFLHFSSLHVLRAVEPALLQRYRAQTCSARLSEDLYHRCLQSVLEGLGSRTQLAMLLFEQEQGNST
notes: CHPF, human, UniProt Q8IZ52, residues 81-775 (membrane-spanning helix removed); Construct in pHR-CMV-TetO2 with an N-terminal chicken RPTP sigma signal peptide, SUMO, 6x His and a 3C site; a second 3C site stands before the C-terminal twin streptavidin tag; also called Chondroitin sulfate synthase 2; source: Freestyle 293-F cells, co-transfected, secreted; purified from the supernatant (HisTrap, …)
binds: all assays above
